Our source for the Kd values is patent US20220175942A1.

The target of test [1] is T1, CCL5_HUMAN (human), P13501.
T1 chain: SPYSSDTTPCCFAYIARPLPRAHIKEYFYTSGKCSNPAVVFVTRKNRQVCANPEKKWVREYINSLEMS
The experiment in a line: BLI. Conditions: other; chains chain; remark: other sources report otherwise.

For test [2], the target named is T2, CCL19_HUMAN (human), Q99731.
T2 chain: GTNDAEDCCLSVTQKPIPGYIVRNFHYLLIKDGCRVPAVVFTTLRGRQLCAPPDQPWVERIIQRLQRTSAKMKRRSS
The experiment in a line: microscale thermophoresis, AlexaFluor 647 labelled chemokine. Conditions: remark: other sources report otherwise. In general terms: In MST a laser heats a spot of the sample, and binding alters the fluorescence response.

The target in test [3] is CCL20_HUMAN (human), P78556. The test is described as above. To be noted: remark: other sources report otherwise.
Sequence of CCL20_HUMAN (human), P78556 (P78556 27-96 limits assumed): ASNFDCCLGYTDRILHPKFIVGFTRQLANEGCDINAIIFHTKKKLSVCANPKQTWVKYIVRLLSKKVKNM
The target in test [4] is T1, CCL5_HUMAN (human), P13501. The description is as above. Conditions: remark: other sources report otherwise.
Test [5] addresses T3, CX3CL1_HUMAN (human), P78423.
T3 chain: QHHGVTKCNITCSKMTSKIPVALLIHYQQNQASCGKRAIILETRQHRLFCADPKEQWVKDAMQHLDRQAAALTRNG
The description is as above. Conditions: remark: other sources report otherwise.

For test [6], the target named is CXCL10_HUMAN (human), P02778. The description is as above. To be noted: remark: other sources report otherwise.
Sequence of CXCL10_HUMAN (human), P02778 (P02778 22-98 limits assumed): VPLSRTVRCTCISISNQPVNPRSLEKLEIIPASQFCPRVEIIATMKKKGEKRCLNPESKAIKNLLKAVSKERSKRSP
The target of test [7] is CXCL12_HUMAN (human), P48061. Described as above. To be noted: remark: other sources report otherwise.
Sequence of CXCL12_HUMAN (human), P48061 (P48061 22-89 limits assumed): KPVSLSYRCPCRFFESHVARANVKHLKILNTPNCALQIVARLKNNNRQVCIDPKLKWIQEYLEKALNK
The target of test [8] is CXCL8_HUMAN (human), P10145. The test is described as above. To be noted: remark: other sources report otherwise.
Sequence of CXCL8_HUMAN (human), P10145 (P10145 28-99 limits assumed): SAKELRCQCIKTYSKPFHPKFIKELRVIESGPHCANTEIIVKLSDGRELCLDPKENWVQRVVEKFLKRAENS

Residue numbers refer to the chain shown, from its start.

B1: P974_AMBCA, A0A023FDY8 22-118 (protein)
chain: ENTQQEEQDYDYGTDTCPFPVLANKTNKAKFVGCHQKCNGGDQKLTDGTACYVVERKVWDRMTPMLWYECPLGECKNGVCEDLRKKEDCRKGNGEEK
For B1, the Kd (commonly a measure of binding affinity in units of concentration) in test [1] was 160 nM. In other words, the sub-micromolar range.

B2: P546_AMBCA, A0A023FBW7 22-118 (protein)
chain: B1 chain with Q8E, E69S, D88E
Consider B2, for which the Kd turned out to be 367 nM in test [2]; 232 nM in test [3]; 128 nM in test [4]; 140 nM in test [5]; 104 nM in test [6]; 71 nM in test [7]. This molecule yielded an equilibrium dissociation constant (Kd) in test [8] of 56 nM.
